Measured values from paper PMC5518878, “Molecular assembly of rhodopsin with G protein-coupled receptor kinases” (Cell Research, 2017).
One block for each binder: values may come before it.

What was measured:
[1] = biological target: T1, β2-adrenergic receptor fused to a TEV cleavage site and tTA (human, UniProt P07550 1-413); experiment: Tango assay (TEV protease proximity reporter); HTL cells co-transfected with receptor-TEV cleavage site-tTA and GRK-TEV protease fusions; luciferase reporter; vehicle or ligand overnight (ATR 10 μM for rhodopsin; paroxetine; DHE 0.1 μM, GR 127935 1 μM; SX 1 μM, ICI 118 551 1 μM); DNA amounts adjusted for similar expression; conditions: partners not purified
T1 construct: human β2-adrenergic receptor; also called β2AR; source: HTL cells, transfected (pcDNA3), in cells; not shown: TEV cleavage site (ENLYFQS), C-terminal, kept

[2] = biological target: T2, serotonin receptor 5-HT1B fused to a TEV cleavage site and tTA (human, UniProt P28222 1-390); experiment: as above; conditions: partners not purified
T2 construct: human serotonin receptor 5-HT1B; also called HTR1b; source: HTL cells, transfected (pcDNA3), in cells; not shown: TEV cleavage site (ENLYFQS), C-terminal, kept

[3] = biological target: T3, Arrestin-biotin-MBP (human wild-type visual arrestin), purified (human, UniProt P10523 1-405, biotin on the tag); experiment: AlphaScreen or HTRF; biotinylated WT arrestin and His8-tagged 4M Rho, with 80 nM purified GRK1 and 40 μM ATP added (indirect kinase assay); conditions: both partners purified
T3 construct: human visual arrestin (arrestin1); also called WT arrestin; arrestin1; source: Sf9 insect cells, purified on amylose beads; not shown: biotin tag, C-terminal, kept

fold induction by the agonist salmeterol xinafoate over the vehicle control [1]: 2 fold | fold induction by the agonist dihydroergotamine over the vehicle control [2]: 2.5 fold
B1: bovine GRK2 fused to the N-terminus of TEV protease (enzyme, UniProt P21146 1-689, looked up)
chain: MADLEAVLADVSYLMAMEKSKATPAARASKKILLPEPSIRSVMQKYLEDRGEVTFEKIFSQKLGYLLFRDFCLKHLEEAKPLVEFYEEIKKYEKLETEEERLVCSREIFDTYIMKELLACSHPFSKSAIEHVQGHLVKKQVPPDLFQPYIEEICQNLRGDVFQKFIESDKFTRFCQWKNVELNIHLTMNDFSVHRIIGRGGFGEVYGCRKADTGKMYAMKCLDKKRIKMKQGETLALNERIMLSLVSTGDCPFIVCMSYAFHTPDKLSFILDLMNGGDLHYHLSQHGVFSEADMRFYAAEIILGLEHMHNRFVVYRDLKPANILLDEHGHVRISDLGLACDFSKKKPHASVGTHGYMAPEVLQKGVAYDSSADWFSLGCMLFKLLRGHSPFRQHKTKDKHEIDRMTLTMAVELPDSFSPELRSLLEGLLQRDVNRRLGCLGRGAQEVKESPFFRSLDWQMVFLQKYPPPLIPPRGEVNAADAFDIGSFDEEDTKGIKLLDSDQELYRNFPLTISERWQQEVAETVFDTINAETDRLEARKKTKNKQLGHEEDYALGKDCIMHGYMSKMGNPFLTQWQRRYFYLFPNRLEWRGEGEAPQSLLTMEEIQSVEETQIKERKCLLLKIRGGKQFVLQCDSDPELVQWKKELRDAYREAQQLVQRVPKMKNKPRSPVVELSKVPLIQRGSANGL
notes: bovine GRK2; source: HTL cells, transfected (pcDNA3), in cells; not shown: HA or FLAG, C-terminal, kept; TEV protease, C-terminal, kept

binding result [3]: binds
B2: H8-MBP-Rho (4M) phosphorylated by purified GRK1 with ATP (receptor, human, UniProt P08100 1-348, looked up)
chain: MCGTEGPNFYVPFSNATGVVRSPFEYPQYYLAEPWQFSMLAAYMFLLIVLGFPINFLTLYVTVQHKKLRTPLNYILLNLAVADLFMVLGGFTSTLYTSLHGYFVFGPTGCNLQGFFATLGGEIALWSLVVLAIERYVVVCKPMSNFRFGENHAIMGVAFTWVMALACAAPPLAGWSRYIPEGLQCSCGIDYYTLKPEVNNESFVIYMFVVHFTIPMIIIFFCYGQLVFTVKEAAAQQQESATTQKAEKEVTRMVIIYVIAFLICWVPYASVAFYIFTHQGSCFGPIFMTIPAFFAKSAAIYNPVIYIMMNKQFRNCMLTTICCGKNPLGDDEASATVSKTETSQVAPA
modifications: phosphorylated by GRK1; sites not stated
notes: human rhodopsin; also called GRK-phosphorylated Rho; source: HEK293S cells, purified on amylose beads; phosphorylated in the assay mixture by 80 nM purified GRK1 with 40 μM ATP; not shown: His8, N-terminal, kept
